Drawing on paper PMC11887224, this text covers Kd for one molecule.

In the series the target is Trop-2 (recombinant, His-tagged) (UniProt P09758 27-274). Put plainly: SPR.
Chain of Trop-2 (recombinant, His-tagged) (P09758 27-274): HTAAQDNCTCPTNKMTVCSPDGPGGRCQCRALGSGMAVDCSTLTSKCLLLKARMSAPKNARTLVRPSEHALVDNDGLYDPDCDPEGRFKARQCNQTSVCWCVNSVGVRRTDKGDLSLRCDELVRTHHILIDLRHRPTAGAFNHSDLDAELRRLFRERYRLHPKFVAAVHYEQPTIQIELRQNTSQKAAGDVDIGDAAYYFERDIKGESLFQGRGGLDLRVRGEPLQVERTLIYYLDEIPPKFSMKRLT

B1: TRPFL (structured_DNA)
DNA: CTACGGTGCCTTGAAGTGACTCGTTCCGTCCCTGGCCGCTCCTACTATCGATGTGTCATAGCAGGTCACTTCCAGG
Broadly, the Kd is the equilibrium constant for the complex coming apart. Consider B1, for which the Kd turned out to be 110 nM.
